Measurements from paper PMC8610377, “Target identification for small-molecule discovery in the FOXO3a tumor-suppressor pathway using a biodiverse peptide library” (Cell Chemical Biology, 2021).

Columns and labels:
[1] = biological target: TAMRA-9J10Min peptide (5-TAMRA-GRRRN(p-Serine)N-acid) (Streptomyces avermitilis); assay: fluorescence polarisation; His-14-3-3ε titrated against 10 nM TAMRA-p9J10Min; 10 mM HEPES, 150 mM NaCl, 0.05% Tween; room temperature
[2] = test system: GFP-FOXO3a localization in U2OS-GFP-FOXO3a cells; assay: FOXO3a relocalisation assay, small-molecule inhibitors, U2OS-GFP-FOXO3a; format: cell-based, human
Method: Cells were transfected with plasmid DNA or siRNA or treated with compounds and incubated for the indicated time. Cells were then fixed in a final concentration of 3.7% formaldehyde by addition of fixative directly to the medium for 10min, then stained with 4 μg/mL Hoechst 33,342 (Invitrogen). For testing of peptides in the U2OS-GFP-FOXO3a cell line, cells were transfected with plasmid DNA using FuGENE 6 (Promega, E2691) as described for the screen. For testing of peptides in the HEK293T cell line, cells were co-transfected with a plasmid encoding the test plasmid and a plasmid encoding GFP-FOXO3a using JetPRIME transfection reagent in 96-well plates. At the indicated time point, cells were then fixed and stained as described above. Leptomycin B was purchased from NEB. PI-103 and BEZ235 were purchased from Selleckchem. GSK690693 was purchased from Sigma. […] Average intensities were calculated for each region and the ratio between nuclear and cytoplasmic GFP-FOXO3a was then calculated. […] Results were then expressed as the percentage of cells with nuclear GFP-FOXO3a. […] Images were acquired and then analyzed using a range of nuclear:cytoplasmic ratios to identify a ratio which reproducibly gave the maximal window between DMSO and PI-103 treated cells. […] Median intensities were calculated for each region and the ratio between nuclear and cytoplasmic GFP-FOXO3a was then calculated.

[3] = biological target: T1, 9J10/14-3-3ε interaction (Homo sapiens, UniProt P62258); assay: FP competition, TAMRA-p9J10Min binding to 14-3-3ε; conditions: 10nM TAMRA-p9J10Min, 1.5μM His-14-3-3ε, room temperature 20 min; mean of 3 independent experiments +/- SD; read-out: IC50, FP competition (unlabelled peptide)
T1 construct: A synthetic gene construct encoding full length human 14-3-3ε; made in house; host or cells: E. coli BL21(DE3)
T1 sequence (P62258 1-255): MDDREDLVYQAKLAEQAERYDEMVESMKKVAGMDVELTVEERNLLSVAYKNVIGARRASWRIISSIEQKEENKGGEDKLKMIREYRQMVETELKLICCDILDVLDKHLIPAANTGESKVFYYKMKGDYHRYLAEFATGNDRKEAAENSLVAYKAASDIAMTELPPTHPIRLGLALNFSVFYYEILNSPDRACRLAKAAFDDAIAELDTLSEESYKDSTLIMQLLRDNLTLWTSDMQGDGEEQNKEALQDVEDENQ
Method: Protein purity was visualized by running SDS-PAGE. […] Compound dilution plates, black 384 well NBS assay plates and tip racks were loaded into the Cytomat as indicated by the scheduling software. […] Test compounds were diluted to 3X final concentration in the dilution plates. 10 μL of diluted compound was added into each well of the assay plate followed by 10μL of […]-3-3ε and 10μL of TAMRA-p9J10Min. Plates were incubated at room temperature for 20 min on the robot's deck or in the Cytomat before the Fluorescence Polarisation was read using the BMG PheraStar plate reader. Test compounds were assayed in triplicate. […] DMSO controls were run alongside all experimental compounds and % inhibition normalised to these controls. All other experimental conditions were as described above.

[4] = test system: transcriptome of HEK293T cells; assay: RNA sequencing, differential gene expression; format: cell-based, human; conditions: 24 h
Method: HEK293T cells were transfected in T75 flasks with plasmid DNA encoding Vector, 9J10^WT, 9J10^AMut, GFP-FOXO3a-AAA or GFP, using JetRPIME transfection reagent. Cells were harvested 24 hr post-transfection. Five independent transfections on different days and using cells of different passage number were carried out for each condition.
Total RNA was isolated using the Qiagen RNeasy Mini Kit (#74104) complete with DNase digestion (Qiagen #79254), according to manufacturers instructions. RNA was submitted to Novogene for transcriptome sequencing. RNA degradation and contamination was monitored on 1% agarose gels. RNA purity was checked using the NanoPhotometer spectrophotometer (IMPLEN, CA, USA), and RNA integrity and quantitation were assessed using the RNA Nano 6000 Assay Kit of the Bioanalyzer 2100 system (Agilent Technologies, CA, USA).
HTSeq v0.6.1 was used to count the read numbers mapped to each gene, and then FPKM of each gene was calculated based on the length of the gene and reads count mapped to this gene. FPKM, […] Per Kilobase of exon model per Million mapped reads, considers the effect of sequencing depth and gene length for the reads count at the same time, and is currently the most commonly used method for estimating gene expression levels ([Mortazavi et al., 2008]).
Differential expression analysis between two conditions/groups (with biological replicates) was performed using the DESeq2 R package (2_1.6.3). DESeq2 provide statistical routines for determining differential expression in digital gene expression data using a model based on the negative binomial distribution. The resulting p values were adjusted using the Benjamini and Hochberg's approach for controlling the False Discovery Rate (FDR). Genes with an adjusted p value of <0.05 found by DESeq2 were assigned as differentially expressed.

[5] = biological target: 6x His-14-3-3ε (full length human 14-3-3ε) (human) (UniProt P62258); assay: MST; 20 nM NT-647-labelled 14-3-3ε with cognate peptide (16-point dilution; 1 μM in the competitive assay with CU7218); 10 mM Hepes, 150 mM NaCl, 0.01% Tween 20; 25°C
[6] = biological target: 6x His-14-3-3ε (full length human 14-3-3ε) (human) (UniProt P62258); assay: fluorescence polarisation; competition: unlabelled 9J10 peptide titrated against 10 nM TAMRA-p9J10Min bound to 1.5 μM His-14-3-3ε; 10 mM HEPES, 150 mM NaCl, 0.05% Tween
[7] = biological target: 6x His-14-3-3ε (full length human 14-3-3ε) (human) (UniProt P62258); assay: ITC; 24 μM 14-3-3ε in the cell titrated with 360 μM TAMRA-9J10; 25°C; 50 mM HEPES, 150 mM NaCl, 0.5 mM DTT; one set of sites model
[8] = GFP-FOXO3a-AAA vs GFP, adjusted p <0.05

Q: For “6x His-14-3-3ε (full length human 14-3-3ε) (from UniProt P62258 1-255) (natural protein)”, which Kd [1] is on record?
A: 1470 nM

Q: Which “nuclear translocation of GFP-FOXO3a” value ([2]; 1 μM PI-103, positive control) does the source give for Oc1cccc(-c2nc(N3CCOCC3)c3oc4ncccc4c3n2)c1 [PI-103] here?
A: high degree of nuclear translocation of GFP-FOXO3a

Q: With CCC(=C/[C@H](C)C/C=C/C(C)=C/[C@@H](C)C(=O)[C@@H](C)[C@H](O)[C@@H](C)C/C(C)=C/C(=O)O)/C=C/[C@@H]1OC(=O)C=C[C@@H]1C [leptomycin B] as the molecule, how does the “relocalization of GFP-FOXO3a to the nucleus” value ([2]; U2OS-GFP-FOXO3a, 3 hr treatment, Figure 1A: PI-103 1 μM, GSK690693 1 μM, leptomycin 2 nM) read?
A: can be relocalized to the nucleus

Q: For CC(C)C[C@H](N)C(=O)N[C@@H](CC(N)=O)C(=O)N[C@@H](CCCNC(=N)N)C(=O)N[C@H](C(=O)N1CCC[C@H]1C(=O)NCC(=O)N[C@@H](CCCNC(=N)N)C(=O)N[C@@H](CCCNC(=N)N)C(=O)N[C@@H](CCCNC(=N)N)C(=O)N[C@@H](CC(N)=O)C(=O)N[C@@H](COP(=O)(O)O)C(=O)N[C@@H](CC(N)=O)C(=O)O)[C@@H](C)O [unlabeled 9J10-derived phosphopeptide], which IC50 [3] is on record?
A: 9800 ± 1200 nM

B1: GFP-FOXO3a-AAA: constitutively active GFP-tagged FOXO3a mutant (protein, UniProt O43524 1-673, looked up, variant T32A S253A S315A)
Forkhead box protein O3: MAEAPASPAPLSPLEVELDPEFEPQSRPRSCAWPLQRPELQASPAKPSGETAADSMIPEEEDDEDDEDGGGRAGSAMAIGGGGGSGTLGSGLLLEDSARVLAPGGQDPGSGPATAAGGLSGGTQALLQPQQPLPPPQPGAAGGSGQPRKCSSRRNAWGNLSYADLITRAIESSPDKRLTLSQIYEWMVRCVPYFKDKGDSNSSAGWKNSIRHNLSLHSRFMRVQNEGTGKSSWWIINPDGGKSGKAPRRRAVAMDNSNKYTKSRGRAAKKKAALQTAPESADDSPSQLSKWPGSPTSRSSDELDAWTDFRSRTNANASTVSGRLSPIMASTELDEVQDDDAPLSPMLYSSSASLSPSVSKPCTVELPRLTDMAGTMNLNDGLTENLMDDLLDNITLPPSQPSPTGGLMQRSSSFPYTTKGSGLGSPTSSFNSTVFGPSSLNSLRQSPMQTIQENKPATFSSMSHYGNQTLQDLLTSDSLSHSDVMMTQSDPLMSQASTAVSAQNSRRNVMLRNDPMMSFAAQPNQGSLVNQNLLHHQHQTQGALGGSRALSNSVSNMGLSESSSLGSAKHQQQSPVSQSMQTLSDSLSGSSLYSTSANLPVMGHEKFPSDLDLDMFNGSLECDMESIIRSELMDADGLDFNFDSLISTQNVVGLNVGNFTGAKQASSQSWVPG
modifications: GFP tag
Q: Which results are given for B1?
A: number of downregulated genes [4, 8]: 2,569 genes; number of upregulated genes [4, 8]: 3,026 genes; CDKN1A (p21^Cip1) expression ([4]; HEK293T): upregulated; CDKN1B (p27^Kip1) expression ([4]; HEK293T): upregulated

B2: Unlabelled 9J10 peptide (…(p-Serine)N-acid) (peptide)
peptide: LNRTPGRRRNSN
HELM: PEPTIDE1{L.N.R.T.P.G.R.R.R.N.[O=C([C@H](COP(=O)(O)O)N[*:1])[*:2]].N}$$$$V2.0; N-terminus assumed
SMILES: CC(C)C[C@H](N)C(=O)N[C@@H](CC(N)=O)C(=O)N[C@@H](CCCNC(=N)N)C(=O)N[C@H](C(=O)N1CCC[C@H]1C(=O)NCC(=O)N[C@@H](CCCNC(=N)N)C(=O)N[C@@H](CCCNC(=N)N)C(=O)N[C@@H](CCCNC(=N)N)C(=O)N[C@@H](CC(N)=O)C(=O)N[C@@H](COP(=O)(O)O)C(=O)N[C@@H](CC(N)=O)C(=O)O)[C@@H](C)O
Q: What does the source list for B2?
A: EC80 [5]: 1000 nM; IC50 [6]: 9800 nM

B3: TAMRA-9J10 peptide (5-TAMRA-…(p-Serine)N-acid) (peptide)
peptide: LNRTPGRRRNSN
HELM: PEPTIDE1{[CN(C)c1ccc2c(-c3ccc(C(=O)[*:2])cc3C(=O)[O-])c3ccc(N(C)C)cc3[o+]c2c1].L.N.R.T.P.G.R.R.R.N.[O=C([C@H](COP(=O)(O)O)N[*:1])[*:2]].N}$$$$V2.0
SMILES: CC(C)C[C@H](NC(=O)c1ccc(-c2c3ccc(N(C)C)cc3[o+]c3cc(N(C)C)ccc23)c(C(=O)[O-])c1)C(=O)N[C@@H](CC(N)=O)C(=O)N[C@@H](CCCNC(=N)N)C(=O)N[C@H](C(=O)N1CCC[C@H]1C(=O)NCC(=O)N[C@@H](CCCNC(=N)N)C(=O)N[C@@H](CCCNC(=N)N)C(=O)N[C@@H](CCCNC(=N)N)C(=O)N[C@@H](CC(N)=O)C(=O)N[C@@H](COP(=O)(O)O)C(=O)N[C@@H](CC(N)=O)C(=O)O)[C@@H](C)O
Q: Which Kd [7] does the source give for B3 here?
A: 700 nM
